One experiment deals with SKP2 (UniProt Q13309). Put plainly: anti-Flag co-IP, immunoblot. Conditions: reference: wild type; sites S121. (Immunoblotting shows a protein as a band on a membrane.)
Experiment [1] has as its target T1, Flag-SKP2 (Flag-tagged S phase kinase-associated protein 2) (UniProt Q13309 1-424).
T1 construct: S phase kinase-associated protein 2 (SKP2); source: HEK293T, transfected, in lysate; also purified from HEK293T cells transfected with the Flag-SKP2 plasmid
Put plainly: pull-down; in vitro GST pulldown; GST-AES fragments and CK1ε-His purified from E. coli, Flag-SKP2 purified from HEK293T cells; with 1 mM ATP; Flag-SKP2 detected with anti-SKP2 antibody. Conditions: both partners purified.

These results are taken from publication PMC7977458, “The CK1δ/ε-AES axis regulates tumorigenesis and metastasis in colorectal cancer” (Theranostics, 2021).

T1 sequence (Q13309 whole entry): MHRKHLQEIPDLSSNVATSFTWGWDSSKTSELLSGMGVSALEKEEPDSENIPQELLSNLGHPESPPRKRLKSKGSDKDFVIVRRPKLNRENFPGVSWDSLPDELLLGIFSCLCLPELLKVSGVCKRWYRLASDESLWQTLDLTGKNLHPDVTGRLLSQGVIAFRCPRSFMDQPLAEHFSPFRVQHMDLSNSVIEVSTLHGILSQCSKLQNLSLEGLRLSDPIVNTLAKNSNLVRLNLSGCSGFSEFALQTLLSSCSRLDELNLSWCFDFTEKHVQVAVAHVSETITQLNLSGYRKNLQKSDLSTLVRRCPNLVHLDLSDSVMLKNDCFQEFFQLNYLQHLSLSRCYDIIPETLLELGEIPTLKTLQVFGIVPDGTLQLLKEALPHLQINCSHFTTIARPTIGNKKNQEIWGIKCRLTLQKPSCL

For the molecule “AES (amino-terminal enhancer of split) (from UniProt Q08117) S121A”, the “binding against the reference” value with SKP2 was “lost”.

B1: GST-AES, full length, phosphorylated by CK1ε-His (natural protein, human, UniProt Q08117 1-197, looked up)
chain: MMFPQSRHSGSSHLPQQLKFTTSDSCDRIKDEFQLLQAQYHSLKLECDKLASEKSEMQRHYVMYYEMSYGLNIEMHKQAEIVKRLNGICAQVLPYLSQEHQQQVLGAIERAKQVTAPELNSIIRQQLQAHQLSQLQALALPLTPLPVGLQPPSLPAVSAGTGLLSLSALGSQAHLSKEDKNGHDGDTHQEDDGEKSD
modifications: phosphorylated in vitro by CK1ε-His with 1 mM ATP; the paper maps the CK1δ/ε site to Ser121
notes: Amino-terminal enhancer of split (AES), human, full length; Same chain as m14, after the kinase reaction in the pull-down; also called full-length AES (with CK1ε-His and ATP); source: E. coli, purified; incubated with CK1ε-His and 1 mM ATP; not shown: GST, N-terminal, kept
As to B1, in experiment [1], the binding result is “binds”.
